Results on 1 substance are retold here after patent US20180044401A1.

Assay [1] deals with IgG-Fc of anti-TNFα monoclonal antibody (Remicade). Description: SPR Biacore, Fc immobilized at about 10000 RU, response 1 minute after addition. (Surface plasmon resonance follows binding to a sensor surface in real time, without labels.)
Assay [2] deals with IgG-Fab prepared from anti-TNFα monoclonal antibody (Remicade). Description: SPR Biacore, Fab immobilized at about 10000 RU, response 1 minute after addition.

“peptide having the amino acid sequence of β1 domain of Protein G (SEQ ID NO: 32) (from UniProt P06654 228-282)”: the inclination of approximate curve (binding response against peptide concentration) was determined as 0.9 in assay [1] and 0.1 in assay [2].
